Assay results reported in patent US20220306733A1 (ITEOS BELGUIM, published 2022).

Tests used:
[1] = molecular target: T1, anti-idiotypic antibody clone 32869; test: MSD electrochemiluminescence bridging ELISA: anti-idiotypic antibody 32869 coated on the plate, clone 31282 spiked in human serum, detection with Sulfo-TAG 32869
T1 construct: Human IgG1 from HEK293, selected from the HuCAL library
Text: The ELISA assay is based on the Meso Scale Discovery (MSD) Platform using electrochemiluminescence detection technology. […] A voltage is applied to the plate electrodes, causing the bound Sulfo-TAG to emit light via electrochemical stimulation.

[2] = molecular target: T2, human TIGIT on cells (Jurkat-hTIGIT, human primary T cells) (human, UniProt Q495A1 22-244); test: flow cytometry on Jurkat-hTIGIT, no 31282
T2 construct: whole, on cells; The cell type is named in each row's assay; also called membrane expressed human TIGIT
T2 sequence (looked up): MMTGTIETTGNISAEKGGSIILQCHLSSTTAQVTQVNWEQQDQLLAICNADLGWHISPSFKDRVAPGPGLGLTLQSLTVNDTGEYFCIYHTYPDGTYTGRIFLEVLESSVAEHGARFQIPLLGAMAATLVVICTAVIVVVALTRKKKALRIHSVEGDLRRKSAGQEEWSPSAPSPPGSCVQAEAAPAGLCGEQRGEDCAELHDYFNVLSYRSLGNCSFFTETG

T1 sequence (VH, as listed by the source, chain 1 of 2): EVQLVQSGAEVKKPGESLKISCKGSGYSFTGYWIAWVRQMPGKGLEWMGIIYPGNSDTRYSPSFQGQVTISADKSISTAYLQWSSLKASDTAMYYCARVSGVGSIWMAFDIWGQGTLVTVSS
T1 sequence (VL, as listed by the source, chain 2 of 2): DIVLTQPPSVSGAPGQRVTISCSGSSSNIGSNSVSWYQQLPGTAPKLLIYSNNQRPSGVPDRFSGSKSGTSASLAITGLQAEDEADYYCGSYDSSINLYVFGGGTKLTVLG

Binder	binding result [1]	Cell binding Jurkat Human TIGIT FON (Fold Over Negative) [2] [fold over negative]
anti-TIGIT antibody clone 31282 (antibody, V domains shown) VH: QVQLVQSGAEVKKPGASVKVSCKASGYTFTSYYMHWVRQAPGQGLEWMGVIGPSGASTSYAQKFQGRVTLTRDTSTSTVYMELSSLRSEDTAVYYCARDHSDYWSGIMEVWGQGTTVTVSS VL: EIVLTQSPGTLSLSPGERATLSCRASQSVRSSYLAWYQQKPGQAPRLLIYGASSRATGIPDRFSGSGSGTDFTLTISRLEPEDFAVYYCQQYFSPPWTFGGGTKVEIK	binds	
anti-TIGIT antibody clone 32959 (antibody, human IgG1, V domains shown, AF647 dye coupled to the antibody in Examples 24 and 36; the site is not stated and the letters do not carry it., human IgG1 from HEK cells) VH: QVQLVQSGAEVKKPGSSVKVSCKASGGTFSSYLISWVRQAPGQGLEWMGGIYPIFATANYAQKFQGRVTITADESTSTAYMELSSLRSEDTAVYYCAREAQSYRVPFDIWGQGTMVTVSS VL: EIVMTQSPATLSVSPGERATLSCRASQSVSSNLAWYQQKPGQAPRLLIYGASTRATGIPARFSGSGSGTEFTLTISSLQSEDFAVYYCQQYAIWPPFTFGGGTKVEIK		588
